Literature values as cited in US20250319161A1, “IMPROVED METHODS OF TREATING DISEASES RESULTING FROM A MALADAPTED STRESS RESPONSE” (priority 2021, published 2025).
pEC50, pKi: −log10 of the molar value. Ends that are not written are not given here.

Experiments:
CRFR2 [1] = target: T1, CRFR2 (Homo sapiens, UniProt Q13324); conditions: read-out: inhibitory constant at CRFR2
T1 sequence (Q13324 1-411): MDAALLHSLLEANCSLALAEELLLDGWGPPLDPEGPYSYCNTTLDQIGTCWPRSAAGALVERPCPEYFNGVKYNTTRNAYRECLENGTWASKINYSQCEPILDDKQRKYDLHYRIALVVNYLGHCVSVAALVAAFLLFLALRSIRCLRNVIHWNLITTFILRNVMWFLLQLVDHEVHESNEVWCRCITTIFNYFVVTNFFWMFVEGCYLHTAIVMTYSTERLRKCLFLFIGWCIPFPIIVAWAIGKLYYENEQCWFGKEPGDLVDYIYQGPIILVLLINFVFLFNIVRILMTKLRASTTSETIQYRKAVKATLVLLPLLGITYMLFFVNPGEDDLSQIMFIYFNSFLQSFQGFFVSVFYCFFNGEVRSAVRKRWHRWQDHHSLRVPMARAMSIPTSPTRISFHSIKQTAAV

CRFR2 [2] = target: T1, CRFR2; conditions: in vitro
CRFR2 [3] = target: T1, CRFR2; conditions: in vitro; remark: listed apart in the source

Substance | pKi (CRFR2 [1]) | concentration achieving maximal CRFR2 endocytosis (CRFR2 [2]) | pEC50 (CRFR2 [3])
endogenous urocortin 2, IVLSLDVPIG LLQILLEQAR ARAARBQATT NARILARV-NH2 [UCN2] | 8.96 | 100 nmol | 8.37
endogenous urocortin 1, DNPSLSIDLTFHLLRTLLELARTQSQRERAEQNRIIFDSV-NH2 (DNPSLSIDLTFHLLRTLLELARTQSQRERAEQNRIIFDSV-NH2; UniProt P55089 83-122, looked up) [UCN1] | 9.40 |  | 
